Experimental data: the nanobody polyreactivity screen of Harvey et al. (2022)

test: yeast display, Sf9 membrane polyspecificity reagent, FACS + sequencing; frameworks hold sequencing errors
In short: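 Sorting gates, low and high (top ~1%), were placed on anti-HA fluorescence to track expression and on streptavidin fluorescence to track reagent binding. A clone's polyreactivity label is taken from the gate it came out of. The reagent was 10% biotinylated, detergent-solubilized Sf9 membrane, applied for 1 hour at 4 °C to galactose-induced yeast display cells.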

Sequence	polyreactivity (PSR sort gate)
QVQLVESGGGLVQAGGSLRLSWAASGSIFGNAMGWYRQAPGKEREFVAAISSSGSSTYYADSVKGRFTISRDNAKNTVYLQMNSLKPEDTAVYYCAKRRRSAAPKYDYWGQGTHVTVSS	high polyreactivity
QVQLVESGGGLVQAGGSLRLSWAASGSIFKYYAMGWYRQAPGKDRELVADISRSGGRTYYADSVKGRFTISRDNAKNTVFLQMNSLKPEDTAVYYCAKRYSRGSQDDYWGQGTQVTVSS	high polyreactivity
QVQLVESGGGLVQAGGSLRLSWAASGSIFRSYAMGWYRQAPGKEREFVAAIPNSSGRTYYADSVKGRFTISRDNAKNTVYLQMNSLKPEDTAVYYCAARLPRTYQGGKLYRLQYSWGQGTQVTVSS	high polyreactivity
QVQLVESGGGLVQAGGSLRLSWAASGSIFVHNTMGWYRQAPGKERELVAAITRSVGRTYFADSVKGRFTISRDNAKNTVYLQMTSLQPADTAVYYCAKPASKGYYWGQGTQVTVSS	high polyreactivity
QVQLVESGGGLVQAGGSLRLSWAASGSTFDSNGMGRYRQAPGKERELVATITSRGASTNYSDSVKGRFTISRDNAKNTVYLEMNSLKPEDTAVYYCNREVPWWLYKYVGHDYWGQGTQVTVSS	low polyreactivity
QVQLVESGGGLVQAGGSLRLSWAASGSTFDYYAMGWYRQAPGKERELVAAIRWSDGSTYYADSVKGRFTISRDNAKNTVYLQMNSLKPEDTAVYYCAADALYWIGRMDYWGQGTQVTVSS	low polyreactivity
QVQLVESGGGLVQAGGSLRLSWAASGSTFPYYAMGWYRQAPGKERELVAAISWSDANTYYADSVKGRFTISRDNAKNTVYLQMNSLKPEDTAVYYCAAEPYDRYGPYTGYGLNYWGQGTQVTVSS	low polyreactivity
QVQLVESGGGLVQAGGSLRLSWAASGSTFYPYAMGWYRPAPGKERELVAAISSSSSTNYADSVKGRFTISRDNAKNTVYLQMNSLKPEDTAVYYCAVTRVIESKQIRYDYWGQGTQVTVSS	low polyreactivity
QVQLVESGGGLVQAGGSLRLSWDASGYTFSRNAMGWYRQAPGKERELVAGISWSGSRTYYADSVKGRFTISRDNAKNTVYLQMNSLKPEDTAVYYCAVLAYGPRNARGGTAGYDYWGQGTEVTVSS	high polyreactivity
QVQLVESGGGLVQAGGSLRLSYAASGSTFHLYAMGWYRQAPGKERELVASINSGGSTYYADSVKGRFTISRDNAKNTVYLQMNSLKPEDTAVYYCAADAYSWWGRWERYPYTTMYYWGQGTQVTVSS	low polyreactivity
QVQLVESGGGLVQAGGSLRLTCAASGAIFEYYSMSWYIQAPGKERELVAAISSGGPTYYADSVKGRFTISRDNAKNTVYLQMNSLKPEDTAVYYCNADLWYPDYEYWGQGTQVNVSS	low polyreactivity
QVQLVESGGGLVQAGGSLRLTCAASGFIFNRYAMGWYRQAPGKERELDADLTGGSTYYAVSVKGRFTISRDNAKKSVYLQLNSVTPEDTAVDYCAADVLPISTLLFRGPGFDSWGQGTQVTFSS	low polyreactivity
QVQLVESGGGLVQAGGSLRLTCAASGFIFPRYAMGWYRQAPGKERELVAAISGNGVRTYYADSVKGRFTISRDNAKNTVYLQMNSLNPEDTAVYYCNTGADVRYRYYYWGQGTQVTVSS	high polyreactivity
QVQLVESGGGLVQAGGSLRLTCAASGFIFYKYAMGWYRQAPGKERELVAAISRGGGSTYYADSVKGRFTISRDNAKNTVYLQMNSLKPEETAVYYCAAQAFIVRPSYVPRHNYWGQGTQVTVSS	high polyreactivity
QVQLVESGGGLVQAGGSLRLTCAASGFTFFTYTMGWYRQPPGKERELVAAISRDGARTNYADSVKGRFTISRDNAKNTVYLQMNSLKPEDTAVYYCAAPTSHLYTEKYDYWGQGTQVTVSS	high polyreactivity
QVQLVESGGGLVQAGGSLRLTCAASGFTFGRYAMGWYRQAPGKERELVAAISTRGGSTYYADSVKGRFTISRDNAKNTVYLQMNSLKPEDTAVYYCAAGGYYVRYDYWGQGTQVTVSS	high polyreactivity
QVQLVESGGGLVQAGGSLRLTCAASGFTFSEYAMGWYRQAPGKEMEVVAAISWRGGSTYYADSVKGRFTISRDNAKNTVYLQMNSLKPEDTAVYYCAADSSGVYASWYKMDYWGKGTQVTVSS	high polyreactivity
QVQLVESGGGLVQAGGSLRLTCAASGFTFVINDMGWYRQAPGKERELVADITSGGDTYYADSVKGRFTISRDNAKNTVNFQMYSLKPEDTAVYYCAADIYPDWIYLLYGYWGQGTQVTVSS	low polyreactivity
QVQLVESGGGLVQAGGSLRLTCAASGFTIGYYAMGWYRQAPGKERELVAAISWSGGRTYYADSVKGRFTISRDNAKNTVYLQMNSLKPEDTAVYDCAADGQQTYSGYDYWGQGTQVTVSS	high polyreactivity
QVQLVESGGGLVQAGGSLRLTCAASGFTLGLNAMGWYRQAPGKEREVVAAIRRSAGSTYYADSVKGRFTISRDNAKNTVYLQMNSLKPEDTAVYYCAAGFLWAKYAYGHWGQGTQVTVSS	low polyreactivity
QVQLVESGGGLVQAGGSLRLTCAASGGIFVFYAMGWYRQAPGKERELVAAIRYGGSSTYYADSVKGRFTISRDNAKNTVYLQMNSLKPEDTAVYYCAAEPYSWDTWVDYDYWGQGTQVTVSS	low polyreactivity
QVQLVESGGGLVQAGGSLRLTCAASGIIFQNYAMGWYRQAPGKERELVAGITGRGGITYYTDSVKGRFTISRDNAKNTVYVQMNSLKPEDTAVSSCAARRYRFAGDYRMYYWGQGTQVTVSS	high polyreactivity

Sequence	polyreactivity (PSR sort gate)
QVQLVESGGGLVQAGGSLRLTCAASGLIFGSNAMRWYRKAPGKERELVAGISGSGEHYVLRRSVKGRFTISRDNAKNTVYVQMNSLKPEDTAVYYCATYSQSSKGPAGYDYWGQGTHVTVSS	high polyreactivity
QVQLVESGGGLVQAGGSLRLTCAASGLIFPFYAMGWYRQATGKERELVAAISSRGGSTYYADSVKGRFTISRDNAKNTVYLQMSSLKPEDTAVYYCAADYGEEYEYSGQGTQVTVSS	high polyreactivity
QVQLVESGGGLVQAGGSLRLTCAASGNIFFVYDMGWYRQAPGKERELVAAISWSGGSTYADSVKGRFTISRDNAKNTVYLQMNSVKPEDTAVDYCAADVAYVEYDYWGQGTQVTVSS	low polyreactivity
QVQLVESGGGLVQAGGSLRLTCAASGNIFKVYAMGWSRQAPGKERELVAAITSGGGTKYADSVKGRFTISRDNAKNTVYLQMNSLKPEDTAVYYCAARFKYDVAKRYGYWGQGTQVTVSS	high polyreactivity
QVQLVESGGGLVQAGGSLRLTCAASGNIFRAYAMGWYRQAPGKERELVAAISWNAGTTYYADSVKGRFTISRDHAKNTVYLQMHSLKPEDTAVYYCAASKLLRRGLCKYYKATYSYDYWGQGTQVTVSS	high polyreactivity
QVQLVESGGGLVQAGGSLRLTCAASGNTFSLNPMGWYRQATGTETELVASSTWDGASTYADSVKGRFTISRDNAKNTVFLQMNSLKPEDTAVYFCAADTYRYGRFLKFDYWGQGTQVTVSS	low polyreactivity
QVQLVESGGGLVQAGGSLRLTCAASGNTFYGYSKGWYRQATGKERELVASISLSGDSTYYADSVKGRFTISRDNAKNTVYLQLNSLKPEDTAVYYCAGVYTYPLGYYHYTYDYWGQGTQVTVSS	low polyreactivity
QVQLVESGGGLVQAGGSLRLTCAASGRIFALYAMGWYRQAPGKERELVAAITSGSTYYADSVKGRFTISRDNAKNTVYLQMNSLKPEDTAVYYCAADANYYPTEYYPFDYWGQGTQVTVSS	low polyreactivity
QVQLVESGGGLVQAGGSLRLTCAASGRIFGAYTMGWYRQEPGKERELVAAISWSGGRTYYADSVKGRFTISRDNAKNTFYLQLNSLNAEDTAVYYCNVRRQSGRYRVYEYDYWGQGTQVTVSS	low polyreactivity
QVQLVESGGGLVQAGGSLRLTCAASGRIFNYYAMGWYRQAPGKEREFVAAITRSGGRTYYADSVKGRFTISRDNAKNTVYLQMNSLKPEDTAVYYCAAPYGTYAYDYWGQGTQVTVSS	high polyreactivity
QVQLVESGGGLVQAGGSLRLTCAASGRIFRPYTMGWYRQAPGKESELVARISISTGRTYYADSVKGRFTISRDNAKNTVYLQMNSLKPEDTAVYYCATRGYRWSVFDYWGQGTQVTVSS	high polyreactivity
QVQLVESGGGLVQAGGSLRLTCAASGRIFTGNSMGWYRQAPGQERELVAAITRRGGNTYYADSVKGRFTISRDNAKNTVYLQMNSLKPEDTAVYSCARDRPGDYAGYDYWGQGTQVTVSS	low polyreactivity
QVQLVESGGGLVQAGGSLRLTCAASGRIFTHNAMGWYRQAPGKVRELVAAITSGGRTTYADSVKGRFTISRDNAKNTVYLQMNSLKPEDSAVYDCNADTGLGSLDFDKRDYWGQGTQVTVSS	low polyreactivity
QVQLVESGGGLVQAGGSLRLTCAASGRIFWSYAMGWYRQAPGKERELVARITTGSSTNYADSVKGRFTISRDNAKNTVYLQMNSLKPEDTAVYYCAADVSNYYFAYYYWGQGTQVTVSS	low polyreactivity
QVQLVESGGGLVQAGGSLRLTCAASGRIFYRYAMGWYRQAPWKERELVAAIRYSGGRTYYADSVKGRFTISRDNAKNTVYLQMNSLQPEDTAVYYCAADGQWYYAPFRGGDYENDYWGQGTQVTVPS	low polyreactivity
QVQLVESGGGLVQAGGSLRLTCAASGRIIGFNAMGWYRQAPGKERELVASIRTTGGTTYYADSVKGRFTISSDNAKNTVYLQMNSLKPEDTAVYYCAARRYPPRMDYWGQGTQVTVSS	high polyreactivity
QVQLVESGGGLVQAGGSLRLTCAASGRTFRLYAMGWYRQAPGKERELVAAITRGGRTNYADSVKGRFTISRDNAKNTVYLQMNSLKPEDTAVYYCAARYVDRHTDYYYWGQGTQVTVSS	low polyreactivity
QVQLVESGGGLVQAGGSLRLTCAASGRTFVENAMGWYRPATGKERELVAAITYSGGGTYYADSVKGRFTISRDNAKNTVYLQMNSVKPEDTAVYDCAATIPYSLDGYDYWGQGTQVTVSS	low polyreactivity
QVQLVESGGGLVQAGGSLRLTCAASGRTFYWNVMGWYRQAPGKERELVAITTSGGSTYYADAVKGRFTISRDNAKNTVYLQMNSLKPEDTAVYYCAAQWRSYYDQYGYDYWGQGTQVTVSS	low polyreactivity
QVQLVESGGGLVQAGGSLRLTCAASGRTLYRYAMGWYRQAPGKERELVAAITNGGSTKYADSVKGRFTISRDNAKNTVYLQMNSLKPEDTAVYYCYAVVNFILLRIYYGQLYNYWGQGTQVTVSS	low polyreactivity
QVQLVESGGGLVQAGGSLRLTCAASGSIFDRNAMGWYRQAPGTERELVAAITYRSGGTYYADSVKGRFTISRDNAKNTVYLQMNSLKPEDTSVYYCNKGYRRYKGYDYWGQGTQVTVSS	high polyreactivity
